Experimental data: US20090226370A1

Target: RFP-fused mouse full length COMP expressed in RCS cells (pDsRed1-N1-COMP) (mouse) (UniProt Q9R0G6)
Experiment: cell-based or functional assay

Sequence of UniProt Q9R0G6 (Q9R0G6 20-755): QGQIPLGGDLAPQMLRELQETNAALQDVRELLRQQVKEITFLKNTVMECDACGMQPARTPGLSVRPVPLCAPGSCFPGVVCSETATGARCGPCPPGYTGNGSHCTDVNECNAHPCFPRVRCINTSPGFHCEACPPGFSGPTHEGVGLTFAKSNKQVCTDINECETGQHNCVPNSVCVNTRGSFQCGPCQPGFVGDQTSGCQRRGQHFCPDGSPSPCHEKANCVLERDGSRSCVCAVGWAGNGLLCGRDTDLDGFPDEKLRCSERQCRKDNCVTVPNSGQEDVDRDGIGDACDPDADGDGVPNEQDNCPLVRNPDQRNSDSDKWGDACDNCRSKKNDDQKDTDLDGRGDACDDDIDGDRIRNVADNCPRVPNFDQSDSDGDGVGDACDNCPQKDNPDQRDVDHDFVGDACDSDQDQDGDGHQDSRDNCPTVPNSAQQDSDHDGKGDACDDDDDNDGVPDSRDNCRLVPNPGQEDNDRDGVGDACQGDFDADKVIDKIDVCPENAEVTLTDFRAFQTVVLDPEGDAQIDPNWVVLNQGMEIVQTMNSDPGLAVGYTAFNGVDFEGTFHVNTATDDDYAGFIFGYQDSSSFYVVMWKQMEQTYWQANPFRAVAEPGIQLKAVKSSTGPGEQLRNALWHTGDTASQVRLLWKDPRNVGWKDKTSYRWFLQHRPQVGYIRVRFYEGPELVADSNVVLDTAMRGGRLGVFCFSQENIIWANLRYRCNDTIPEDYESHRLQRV

Substance: GFP-linked GEP expressed in RCS cells (pEGFP-GEP) (ligand)
- enhancement of GEP-mediated stimulation of RCS cell proliferation by coexpression of COMP, day 2 (viable cell count): 2.3 fold
- enhancement of GEP-mediated stimulation of RCS cell proliferation by coexpression of COMP, day 3 (viable cell count): 2.1 fold
- enhancement of GEP-mediated stimulation of RCS cell proliferation by coexpression of COMP, day 4 (viable cell count): 1.7 fold
- enhancement of GEP-mediated stimulation of RCS cell proliferation by coexpression of COMP, day 5 (viable cell count): 1.5 fold
